The assay has as its target RT1.D (rat MHC class II molecule) (rat). In words: cell-based or functional assay.

Consider Ox-17 (anti-RT1.D antibody), for which the inhibition of proliferation of PI-specific T cells to 20 ug/ml PI peptide was 22 to 25%.

Source of the values: patent US6509165.
